Test results reported in the supplement of paper PMC10266784.

B1: library; numbered along this chain (parent)
chain: MAAAAAAAAEQQSSNGPVKKSMREKAVERRSVNKEHNSNFKAGYIPIDEDRLHKTGLRGRKGNLAICVIILLFILAVINLIITLVIWAVIRIGPNGCDSMEFHESGLLRFKQVSDMGVIHPLYKSTVGGRRNENLVITGNNQPIVFQQGTTKLSVENNKTSITSDIGMQFFDPRTQNILFSTDYETHEFHLPSGVKSLNVQKASTERITSNATSDLNIKVDGRAIVRGNEGVFIMGKTIEFHMGGNMELKAENSIILNGSVMVSTTRLPSSSSGDQLGSGDWVRYKLCMCADGTLFKVQVTSQNMGCQISDNPCGNTH

Variants of: B1
Assay: SGCB cell-surface expression functional score (HA stain, bin4 vs bin1, normalised to synonymous) (log10 ratio); higher = more cell-surface SGCB (functional)
Outline: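 Sorting and sequencing yield the functional score, defined as the log ratio of a variant's highest-bin frequency to its lowest-bin frequency, with the median taken over codons and replicate transductions. The libraries, codon-saturation sets of HA-tagged, YFP-fused human beta-sarcoglycan, went into HEK293 cells stably carrying alpha-, gamma- and delta-sarcoglycan by duplicate lentiviral transduction at MOI <0.1. Cells were stained on ice with Alexa Fluor 647 anti-HA, fixed and split into four 5% intensity bins, and synonymous variants were scaled per section to mean 0, SD 0.5.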

| Variant | SGCB cell-surface expression functional score (log10) |
| --- | --- |
| MAAAAAAAAEQQSSNGPVKKSMREKAVERRSVNKEHNSNFKAGYIPIDEDRLHKTGLRGRKGNLAICVIILMFILAVINLIITLVIWAVIRIGPNGCDSMEFHESGLLRFKQVSDMGVIHPLYKSTVGGRRNENLVITGNNQPIVFQQGTTKLSVENNKTSITSDIGMQFFDPRTQNILFSTDYETHEFHLPSGVKSLNVQKASTERITSNATSDLNIKVDGRAIVRGNEGVFIMGKTIEFHMGGNMELKAENSIILNGSVMVSTTRLPSSSSGDQLGSGDWVRYKLCMCADGTLFKVQVTSQNMGCQISDNPCGNTH [L72M] | 0.13 |
| MAAAAAAAAEQQSSNGPVKKSMREKAVERRSVNKEHNSNFKAGYIPIDEDRLHKGGLRGRKGNLAICVIILLFILAVINLIITLVIWAVIRIGPNGCDSMEFHESGLLRFKQVSDMGVIHPLYKSTVGGRRNENLVITGNNQPIVFQQGTTKLSVENNKTSITSDIGMQFFDPRTQNILFSTDYETHEFHLPSGVKSLNVQKASTERITSNATSDLNIKVDGRAIVRGNEGVFIMGKTIEFHMGGNMELKAENSIILNGSVMVSTTRLPSSSSGDQLGSGDWVRYKLCMCADGTLFKVQVTSQNMGCQISDNPCGNTH [T55G] | 0.16 |
| MAAAAAAAAEQQSSNGPVKKSMREKAVERRSVNKEHNSNFKAGYIPIDEDRLHKTGLRGRKGNLAICVIILLFILAVINLIITLVIWAVIRIGPNGCDSMEFHESGLLRFKQVSDMGVIHPLYKSTVGGRRNENLVITGNNQPIVFQQGTTKLSVENNKTSITSDIGMQFFDPRTQNILFSTDYETHEFHLPSGVKSLNVQKASTERITSNATSDLNIKVDGRAIVRSNEGVFIMGKTIEFHMGGNMELKAENSIILNGSVMVSTTRLPSSSSGDQLGSGDWVRYKLCMCADGTLFKVQVTSQNMGCQISDNPCGNTH [G228S] | 0.43 |
| MAAAAAAAAEQQSSNGPVKKSMREKAVERRSVNKEHNSNFKAGYIPIDEDRLHKTGQRGRKGNLAICVIILLFILAVINLIITLVIWAVIRIGPNGCDSMEFHESGLLRFKQVSDMGVIHPLYKSTVGGRRNENLVITGNNQPIVFQQGTTKLSVENNKTSITSDIGMQFFDPRTQNILFSTDYETHEFHLPSGVKSLNVQKASTERITSNATSDLNIKVDGRAIVRGNEGVFIMGKTIEFHMGGNMELKAENSIILNGSVMVSTTRLPSSSSGDQLGSGDWVRYKLCMCADGTLFKVQVTSQNMGCQISDNPCGNTH [L57Q] | -0.03 |
| MAAAAAAAAEQQSSNGPVKKSMREKAVERRSVNKEHNSNFKAGYIPIDEDRLHKTGLRGRKGNLAICVIILLFILAVINLIITLVIWAVIRIGPNGCDSMEFHESGLLRFKQVSDMGVIHPLYKSTVGGRRNENLVITGNNQPIVFQQGTTKLSVENNKTSITSDIGMQFFDPRTQNILFSTDYETHEFHLPSGVKSLNVQKASTERITSNATSDLNIKVDGRAIVRGNEGVFIMGKTIEFHMGGNMELKAENSIILNGSVMGSTTRLPSSSSGDQLGSGDWVRYKLCMCADGTLFKVQVTSQNMGCQISDNPCGNTH [V263G] | -0.03 |
| MAAAAAAAAEQQSSNGPVKKSMREKAVERRSVNKEHNSNFKAGYIPIDEDRLHKTGLRGRKGNLAICVIILLGILAVINLIITLVIWAVIRIGPNGCDSMEFHESGLLRFKQVSDMGVIHPLYKSTVGGRRNENLVITGNNQPIVFQQGTTKLSVENNKTSITSDIGMQFFDPRTQNILFSTDYETHEFHLPSGVKSLNVQKASTERITSNATSDLNIKVDGRAIVRGNEGVFIMGKTIEFHMGGNMELKAENSIILNGSVMVSTTRLPSSSSGDQLGSGDWVRYKLCMCADGTLFKVQVTSQNMGCQISDNPCGNTH [F73G] | 0.22 |
| MAAAAAAAAEQQSSNGPVKKSMREKAVERRSVNKEHNSNFKAGYIPIDEDRLHKTGLRGRKGNLAICVIILLFILAVINLIITLVIWAVIRIGPNGCDSMEFHESGLLRFKQVSDMGVIHPLYKSTWGGRRNENLVITGNNQPIVFQQGTTKLSVENNKTSITSDIGMQFFDPRTQNILFSTDYETHEFHLPSGVKSLNVQKASTERITSNATSDLNIKVDGRAIVRGNEGVFIMGKTIEFHMGGNMELKAENSIILNGSVMVSTTRLPSSSSGDQLGSGDWVRYKLCMCADGTLFKVQVTSQNMGCQISDNPCGNTH [V127W] | -1.36 |
| MAAAAAAAAEQQSSNGPVKKSMREKAVERRSVNKEHNSNFKAGYIPIDEDRLHKTGLRGRKGNEAICVIILLFILAVINLIITLVIWAVIRIGPNGCDSMEFHESGLLRFKQVSDMGVIHPLYKSTVGGRRNENLVITGNNQPIVFQQGTTKLSVENNKTSITSDIGMQFFDPRTQNILFSTDYETHEFHLPSGVKSLNVQKASTERITSNATSDLNIKVDGRAIVRGNEGVFIMGKTIEFHMGGNMELKAENSIILNGSVMVSTTRLPSSSSGDQLGSGDWVRYKLCMCADGTLFKVQVTSQNMGCQISDNPCGNTH [L64E] | -0.26 |
| MAAAAAAAAEQQSSNGPVKKSMREKAVERRSVNKEHNSNFKAGYIPIDEDRLHKTGLRGRKGNLAICVIILLFILAVINLIITLVIWAVIRIGPNGCDSMEFHESGLLRFKQVSDMGVIHPLYKSTVGGRRNENLVITLNNQPIVFQQGTTKLSVENNKTSITSDIGMQFFDPRTQNILFSTDYETHEFHLPSGVKSLNVQKASTERITSNATSDLNIKVDGRAIVRGNEGVFIMGKTIEFHMGGNMELKAENSIILNGSVMVSTTRLPSSSSGDQLGSGDWVRYKLCMCADGTLFKVQVTSQNMGCQISDNPCGNTH [G139L] | -1.18 |
| MAAAAAAAAEQQSSNGPVKKSMREKAVERRSVNKEHNSNFKAGYIPIDEDRLHKTGLRGRKGNLAICVIILLFILAVINLIITLVIWAVIRIGPNGCDSMEFHESGLLRFKQVSDMCVIHPLYKSTVGGRRNENLVITGNNQPIVFQQGTTKLSVENNKTSITSDIGMQFFDPRTQNILFSTDYETHEFHLPSGVKSLNVQKASTERITSNATSDLNIKVDGRAIVRGNEGVFIMGKTIEFHMGGNMELKAENSIILNGSVMVSTTRLPSSSSGDQLGSGDWVRYKLCMCADGTLFKVQVTSQNMGCQISDNPCGNTH [G117C] | -0.28 |
